Stoichiometry N data for two substances are collected here from article PMC8244417.

Experiment [1] deals with TmZIP C-terminally fused to TEV-GFP-His10. The experiment is described as follows: SDS-PAGE of the IMAC-pure protein.
Experiment [2] deals with TmZIP N-terminally fused to His10-GFP-TEV. Nature of the experiment: SDS-PAGE of the IMAC-pure protein.

The term stoichiometry N denotes a count of units in the complex or per binding partner. As for “TmZIP C-terminally fused to TEV-GFP-His10 (natural protein)”, in experiment [1], the stoichiometry N came out at 2.

For the substance “TmZIP N-terminally fused to His10-GFP-TEV (natural protein)”, in experiment [2], the stoichiometry N stood at 2.
